In IntAct's records for PubMed 17698606:

B1: S phase cyclin A-associated protein in the endoplasmic reticulum (Homo sapiens), Q9BY12 (parent)
chain: MMASFQRSNSHDKVRRIVAEEGRTARNLIAWSVPLESKDDDGKPKCQTGGKSKRTIQGTHKTTKQSTAVDCKITSSTTGDKHFDKSPTKTRHPRKIDLRARYWAFLFDNLRRAVDEIYVTCESDQSVVECKEVLMMLDNYVRDFKALIDWIQLQEKLEKTDAQSRPTSLAWEVKKMSPGRHVIPSPSTDRINVTSNARRSLNFGGSTGTVPAPRLAPTGVSWADKVKAHHTGSTASSEITPAQSCPPMTVQKASRKNERKDAEGWETVQRGRPIRSRSTAVMPKVSLATEATRSKDDSDKENVCLLPDESIQKGQFVGDGTSNTIESHPKDSLHSCDHPLAEKTQFTVSTLDDVKNSGSIRDNYVRTSEISAVHIDTECVSVMLQAGTPPLQVNEEKFPAEKARIENEMDPSDISNSMAEVLAKKEELADRLEKANEEAIASAIAEEEQLTREIEAEENNDINIETDNDSDFSASMGSGSVSFCGMSMDWNDVLADYEARESWRQNTSWGDIVEEEPARPPGHGIHMHEKLSSPSRKRTIAESKKKHEEKQMKAQQLREKLREEKTLKLQKLLEREKDVRKWKEELLDQRRRMMEEKLLHAEFKREVQLQAIVKKAQEEEAKVNEIAFINTLEAQNKRHDVLSKLKEYEQRLNELQEERQRRQEEKQARDEAVQERKRALEAERQARVEELLMKRKEQEARIEQQRQEKEKAREDAARERARDREERLAALTAAQQEAMEELQKKIQLKHDESIRRHMEQIEQRKEKAAELSSGRHANTDYAPKLTPYERKKQCSLCNVLISSEVYLFSHVKGRKHQQAVRENTSIQGRELSDEEVEHLSLKKYIIDIVVESTAPAEALKDGEERQKNKKKAKKIKARMNFRAKEYESLMETKNSGSDSPYKAKLQRLAKDLLKQVQVQDSGSWANNKVSALDRTLGEITRILEKENVADQIAFQAAGGLTALEHILQAVVPATNVNTVLRIPPKSLCNAINVYNLTCNNCSENCSDVLFSNKITFLMDLLIHQLTVYVPDENNTILGRNTNKQVFEGLTTGLLKVSAVVLGCLIANRPDGNCQPATPKIPTQEMKNKPSQGDPFNNRVQDLISYVVNMGLIDKLCACFLSVQGPVDENPKMAIFLQHAAGLLHAMCTLCFAVTGRSYSIFDNNRQDPTGLTAALQATDLAGVLHMLYCVLFHGTILDPSTASPKENYTQNTIQVAIQSLRFFNSFAALHLPAFQSIVGAEGLSLAFRHMASSLLGHCSQVSCESLLHEVIVCVGYFTVNHPDNQVIVQSGRHPTVLQKLCQLPFQYFSDPRLIKVLFPSLIAACYNNHQNKIILEQEMSCVLLATFIQDLAQTPGQAENQPYQPKGKCLGSQDYLELANRFPQQAWEEARQFFLKKEKK

Variants of: B1
Conditions: with cdk2_human CDK2, P24941

Row | effect of a mutation on the interaction | Variant
1 | with no effect | R678A;L680A
2 | disrupting interaction strength | R199A;S200A;L201A
3 | with no effect | R26A;N27A;L28A
